The target in test [1] is T1, human MSLN-His-Avi (human, UniProt Q13421 296-598, single biotin (BirA) in the biotinylated form).
T1 construct: Monomeric, made in HEK293-6E; Used both immobilised and in solution; also called hMSLN-His-Avi; biotinylated hMSLN-His-Avi
In words: SPR (Biacore), hMSLN-His-Avi immobilised at 50 RU, mAb injected. The method, then:
(§1) Human MSLN-His-Avi was immobilised on flow cell 2 on a CM5 Series S BIAcore sensor chip (GE Healthcare, BR100530) using an amine coupling kit (GE Healthcare, BR10050) to approximately 200 response units (RU). Flow cell 1 was left blank for subtraction. HEK293-6E supernatants or purified proteins were adjusted with HBS-EP+(GE Healthcare) to approximately 50 nM anti-MSLN mAb per sample. Samples were injected over flow cell 1 and 2 for 2.5 min at 30 μl/min and then allowed to dissociate in HBS-EP buffer for 2.5 min. Regeneration was achieved by injecting 10 mM glycine pH 1.5 (GE Healthcare, BR100354) for 30 seconds at a rate of 30 μl/min. Subtracted data (flow cell 2−flow cell 1) were analysed using BIAevaluation 3.2 Software (GE Healthcare).
(§2) For each bin described in 2.1.3, the binding kinetics were determined using the same method as described in section 2.1.2, except that human or cyno MSLN-His-Avi was immobilised at 50 or 100 RU. Clones were tested at a concentration range of 81 nM to 0.33 nM in 3-fold dilutions.

In test [2] the target is T2, cell surface human mesothelin (MSLN) (human, UniProt Q13421 296-598).
T2 construct: whole, on cells; also called cell surface MSLN
In words: flow cytometry on NCI-H226 cells (endogenous cell surface MSLN), detection with anti-human IgG-PE, geometric mean MFI. The method, then: (§3) Briefly, NCI-H226 cells (ATCC CRL-5826) were harvested from T175 cell culture flasks using StemPro Accutase (Gibco, A11105-01). Cells were centrifuged at 1200 rpm for 3 min and resuspended in ice cold FACS buffer made up of DPBS (Life Technologies, 14190169) and 1% BSA (Sigma-Aldrich, A7906) at 2×10⁶ cells/ml and 50 μl per well was seeded in a 96-well V-bottom plate (Costar, 3894). All mAbs tested were diluted in FACS buffer in 120 μl at a concentration range of 0.01-200 nM (4-fold dilutions). The NCI-H226 cells were then centrifuged, supernatant removed and cells resuspended in 100 μl of each mAb dilution and incubated at 4° C. for 45 min. Cells were washed twice by centrifugation with 150 μl FACS buffer, resuspended in 100 μl containing goat anti-human IgG (γ-chain specific) F(ab′)2 fragment-R-Phycoerythrin antibody (Sigma, P8047) diluted 1:1000 in FACS buffer and incubated at 4° C. for 45 min. The cells were washed once with 150 μl FACS buffer and then with 150 μl DPBS, resuspended in 150 μl DPBS containing DAPI (Biotium, 40043) at 1:10.000 and read on the BDCantoll or iQue (Intellicyt). Data was analysed using FlowJo v10 to determine the signal geometric mean for PE for live cells in each well.

The target of test [3] is T1, human MSLN-His-Avi. In words: competition ELISA: mAb pre-mixed with biotinylated hMSLN-His-Avi, binding to coated MUC16 (competitor). As for the experimental part: Plates were washed 3 times with 1× PBS and blocked with 300 μl PBS containing 2% Tween20 and 2% Marvel Milk. A concentration of anti-MSLN mAbs (0.23 nM to 500 nM, 3-fold dilutions) were pre-mixed with biotinylated hMSLN-His-Avi antigen (final concentration 2 μg/ml) in a volume of 100 μl for 1 hr at room temperature. After removal of the blocking solution, the mAb/MSLN mixture was added to the plates and incubated for 1 hr at room temperature. Plates were washed 3 times with PBST (1× PBS and 0.05% Tween20) and incubated with streptavidin-HRP (Thermo Scientific, 21126, 1:1000 dilution in 1× PBS) for 1 hr at room temperature. Finally, plates were washed 3 times with PBST and 3 times with PBS. […] Absorbances were read at 450-630 nm (Gen5 software, BioTek).

The target in test [4] is T1, human MSLN-His-Avi. The experiment in a line: ELISA, hMSLN-His-Avi coated at 1 ug/ml.
For test [5], the target named is T1, human MSLN-His-Avi. The experiment in a line: SPR (Biacore), hMSLN-His-Avi immobilised at 100 RU, mAb injected. The method, then: as §1, §2
The target of test [6] is T2, cell surface human mesothelin (MSLN). The experiment in a line: flow cytometry, NCI-H226 cells (n = 3). The method, then: as §3

Numbering of substitutions follows the chain as printed.

T2 sequence (Q13421 other isoform, or with tags, fused parts or gaps limits assumed): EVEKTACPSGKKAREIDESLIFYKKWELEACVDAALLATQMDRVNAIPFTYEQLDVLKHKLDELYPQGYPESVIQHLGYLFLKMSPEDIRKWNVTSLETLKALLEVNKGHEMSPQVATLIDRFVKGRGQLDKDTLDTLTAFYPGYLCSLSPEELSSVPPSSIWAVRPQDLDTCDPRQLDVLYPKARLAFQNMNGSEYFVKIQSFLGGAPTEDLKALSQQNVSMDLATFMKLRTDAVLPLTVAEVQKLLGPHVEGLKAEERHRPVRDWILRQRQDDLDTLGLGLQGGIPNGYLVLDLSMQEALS
T1 sequence (Q13421 other isoform, or with tags, fused parts or gaps): as the sequence (Q13421 other isoform, or with tags, fused parts or gaps limits assumed) above

B1: G1-AA/FS28-024 (antibody, human IgG1, kappa, L234A L235A, V domains shown)
VH: EVQLLESGGGLVQPGGSLRLSCAASGFTLSYSSMSWVRQAPGKGLEWVSFITPSTGYTHYADSVKGRFTISRDNSKNTLYLQMNSLRAEDTAVYYCARRALTFDYWGQGTLVTVSS
VL: EIVLTQSPGTLSLSPGERATLSCRASQSVSSSYLAWYQQKPGQAPRLLIYGASSRATGIPDRFSGSGSGTDFTLTISRLEPEDFAVYYCQQASSYPLTFGQGTKVEIKR
notes: Complete human IgG1 with LALA mutation; also called FS28-024 mAb (in G1-AA format)
Consider B1, for which the figures for the Kd with human MSLN-His-Avi [1] and in the test with human MSLN-His-Avi [5] were 0.77 nM and 0.23 nM, respectively. Moreover, the “EC50 (read off the curve)” value in test [2] was about 1 nM. The molecule further yielded an IC50 with human MSLN-His-Avi [3] of 2.9 nM. In addition, the EC50 with human MSLN-His-Avi [4] is about 0.5 nM; in test [6] it was 0.62 nM. Further, in the test with human MSLN-His-Avi [4], the maximum binding signal came out at 3. The “Emax (MFI signal)” value in test [6] turned out to be 14600 MFI.

B2: G1-AA/FS28-026 (antibody, human IgG1, kappa, L234A L235A, V domains shown)
VH: EVQLLESGGGLVQPGGSLRLSCAASGFTFSNYAMTWVRQAPGKGLEWVSSITPYYSKTDYADSVKGRFTISRDNSKNTLYLQMNSLRAEDTAVYYCARNWYRFDYWGQGTLVTVSS
VL: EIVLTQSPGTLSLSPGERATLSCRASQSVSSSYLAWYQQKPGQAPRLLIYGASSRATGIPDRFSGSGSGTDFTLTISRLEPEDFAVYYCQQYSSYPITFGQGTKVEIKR
notes: IgG1 LALA; also called FS28-026 mAb (in G1-AA format)
In the case of B2, the results for the Kd with human MSLN-His-Avi [1] and with human MSLN-His-Avi [5] were 0.21 nM and 0.12 nM, respectively. Besides, in test [2], the “EC50 (read off the curve)” value is about 1 nM. The same molecule displayed an IC50 in the test with human MSLN-His-Avi [3] of 5.2 nM. The EC50 with human MSLN-His-Avi [4] was about 0.5 nM; in test [6], 1.08 nM. Besides, the maximum binding signal with human MSLN-His-Avi [4] amounted to 3. Also, the “Emax (MFI signal)” value in test [6] turned out to be 13600 MFI.

B3: G1-AA/FS28-091 (antibody, human IgG1, kappa, L234A L235A, V domains shown)
VH: B2 VH with S30T, T35S, T52K, Y55D, S56G, K57N, D59Y, W100R, Y101W, R102V
VL: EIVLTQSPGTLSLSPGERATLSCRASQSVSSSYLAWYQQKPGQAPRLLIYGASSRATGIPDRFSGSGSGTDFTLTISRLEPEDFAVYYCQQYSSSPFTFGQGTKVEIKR
notes: IgG1 LALA; also called FS28-091 mAb (in G1-AA format)
B3: the Kd with human MSLN-His-Avi [1] stood at 1.24 nM; with human MSLN-His-Avi [5] it was 0.76 nM. The “EC50 (read off the curve)” value in test [2] was about 1 nM. For the same molecule, in the test with human MSLN-His-Avi [3], the IC50 was determined as 4.4 nM. Moreover, the results for the EC50 (with human MSLN-His-Avi [4]; in test [6]) were about 0.5 nM and 1.22 nM, respectively. The molecule also had a maximum binding signal with human MSLN-His-Avi [4] of 3. Moreover, the “Emax (MFI signal)” value in test [6] was 11900 MFI.
